Assay results reported in patent US20120282285A1 (RIGSHOSPITALET, published 2012).

Assays:
Ficolin-3 [1] = biological target: T1, Ficolin-3 (human, UniProt O75636 24-299); test: 10-30% sucrose gradient of serum; fractions read by western blot
T1 construct: Serum Ficolin-3 in the co-precipitations, ELISA and gradient. rFicolin-3 on acetylated BSA in the C4 deposition assays; also called rFicolin-3; recombinant human Ficolin-3
Method: (§1) Normal human serum was subjected to sucrose gradient separation. 0.75 ml serum was loaded onto 40 ml centrifugation columns consisting of 10-30% sucrose gradients buffered in 10 mM Tris, 145 mM NaCl, 3 mM CaCl₂ and human serum albumin at 30 μg/ml. The loaded columns were centrifuged at 150.000×g in vacuum for 24 hours at 4° C. in a L70 Beckmann ultracentrifuge with a SW28 rotor head. 1.5 ml fractions were collected from the bottom and analyzed by specific ELISA or immunoblotting for the following antigens: MAP-1, MASP-1, MASP-2, MASP-3, sMAP, MBL, Ficolin-2 and Ficolin-3. The peaks of the serum IgM (19S) and IgG (7S) were also assessed indicating the molecular […]. Additionally the fractions were analyzed for the capacity to activate exogenously applied C4. […] The C4 deposition was subsequently measured with polyclonal antibodies to C4c (Q 0369, Dako, Glostrup, Denmark).
(§2) In order to investigate the distribution of MAP-1 in relation to associated molecules and to examine how much appears non-associated we subjected normal human serum to density fractionation using a 10-30% sucrose gradient and ultracentrifugation. Subsequently the collected fractions were analyzed for MAP-1, MASP-3, MBL, Ficolin-2 and -3 by ELISA (FIG. 31A) and MAP-1, MASP-1, -2 and -3, sMAP, MBL, Ficolin-2 and -3 by western blotting (FIG. 31B). […]

Ficolin-3 [2] = biological target: T1, Ficolin-3; test: 10-30% sucrose gradient of serum; fractions read by ELISA and western blot
Method: as §1, §2

T1 sequence (O75636 24-299 limits assumed): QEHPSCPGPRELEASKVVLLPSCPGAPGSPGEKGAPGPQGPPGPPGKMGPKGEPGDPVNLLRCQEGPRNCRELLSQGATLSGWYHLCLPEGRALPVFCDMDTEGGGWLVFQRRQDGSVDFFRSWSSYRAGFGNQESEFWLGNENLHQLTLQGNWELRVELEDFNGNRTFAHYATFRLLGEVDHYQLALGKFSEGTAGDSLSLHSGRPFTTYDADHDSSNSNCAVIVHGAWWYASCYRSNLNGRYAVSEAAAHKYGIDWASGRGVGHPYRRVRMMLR

| Binder | binding result (Ficolin-3 [1]) | binding result (Ficolin-3 [2]) |
| --- | --- | --- |
| small MBL-associated protein (sMAP) (other, Serum protein in the sucrose gradient; also called MAp19; MBL-associated plasma protein of 19 kD) TPLGPKWPEPVFGRLASPGFPGEYANDQERRWTLTAPPGYRLRLYFTHFDLELSHLCEYDFVKLSSGAKVLATLCGQESTDTERAPGKDTFYSLGSSLDITFRSDYSNEKPFTGFEAFYAAEDIDECQVAPGEAPTCDHHCHNHLGGFYCSCRAGYVLHRNKRTCSEQSL | binds |  |
| MBL-Associated Serine Protease-3 (MASP-3) (enzyme, also called rMASP-3) HTVELNNMFGQIQSPGYPDSYPSDSEVTWNITVPDGFRIKLYFMHFNLESSYLCEYDYVKVETEDQVLATFCGRETTDTEQTPGQEVVLSPGSFMSITFRSDFSNEERFTGFDAHYMAVDVDECKEREDEELSCDHYCHNYIGGYYCSCRFGYILHTDNRTCRVECSDNLFTQRTGVITSPDFPNPYPKSSECLYTIELEEGFMVNLQFEDIFDIEDHPEVPCPYDYIKIKVGPKVLGPFCGEKAPEPISTQSHSVLILFHSDNSGENRGWRLSYRAAGNECPELQPPVHGKIEPSQAKYFFKDQVLVSCDTGYKVLKDNVEMDTFQIECLKDGTWSNKIPTCKIVDCRAPGELEHGLITFSTRNNLTTYKSEIKYSCQEPYYKMLNNNTGIYTCSAQGVWMNKVLGRSLPTCLPECGQPSRSLPSLVKRIIGGRNAEPGLFPWQALIVVEDTSRVPNDKWFGSGALLSASWILTAAHVLRSQRRDTTVIPVSKEHVTVYLGLHDVRDKSGAVNSSAARVVLHPDFNIQNYNHDIALVQLQEPVPLGPHVMPVCLPRLEPEGPAPHMLGLVAGWGISNPNVTVDEIISSGTRTLSDVLQYVKLPVVPHAECKTSYESRSGNYSVTENMFCAGYYEGGKDTCLGDSGGAFVIFDDLSQRWVVQGLVSWGGPEECGSKQVYGVYTKVSNYVDWVWEQMGLPQSVVEPQVER |  | binds |
